Key:
[1] = biological target: T1, recombinant human CD9 long extracellular loop 2-human Fc fusion protein (10015-CD, R&D Systems) (human, UniProt P21926 112-195); assay: biolayer interferometry (Octet RED384), CD9 loop 2-Fc on AHC biosensors, Fab-Y 10 ug/mL
T1 construct: Bought protein; The parts are ordered as in the printed name; also called CD9-loop2; long extracellular loop 2 peptide; not shown: human Fc of the bought fusion protein
T1 sequence: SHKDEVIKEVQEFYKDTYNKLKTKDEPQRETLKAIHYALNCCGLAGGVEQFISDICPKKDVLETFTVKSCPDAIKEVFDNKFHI
Experimental: Seven different CD9 antibodies each providing unique functional activity with CD137, CD7 and HVEM antibodies in a bispecific combination were analysed for their ability to bind the long extracellular loop 2 of CD9. CD9 contains two extracellular loops: a short extracellular loop (loop 1: 34-55 in SEQ ID NO:1) and a long extracellular loop (loop 2: 112-195 in SEQ ID NO:1). We used biolayer interferometry to assess binding of our panel of CD9 Fab-Y antibodies (selected for ability to bind full-length CD9 expressed on cells) to the long extracellular loop 2 peptide, using the Octet® RED384 System (FortéBio) with anti-hIgG Fc Capture (AHC) Biosensors (FortéBio) at room temperature. Firstly, an array of 8 sensors was dipped in kinetics buffer (PBS 0.1%, BSA 0.02%, Tween 20) for 120 seconds to provide a baseline signal. Sensors were then moved to wells containing 200 μl of recombinant human CD9 long extracellular loop 2-human Fc fusion protein (10015-CD, R&D Systems®) at 2 μg/mL in kinetics buffer to immobilize the protein to the biosensor (100 seconds), followed by a second baseline step (180 seconds) in kinetics buffer to equilibrate the biosensors now coated with the CD9 long extracellular loop 2-human Fc fusion protein. No detachment of the peptide was observed during this step. […]

[2] = biological target: T2, full-length CD9 expressed on cells (human, UniProt P21926 2-228); assay: selection by binding to cells expressing full-length CD9; method not described
T2 construct: also called human CD9
T2 sequence: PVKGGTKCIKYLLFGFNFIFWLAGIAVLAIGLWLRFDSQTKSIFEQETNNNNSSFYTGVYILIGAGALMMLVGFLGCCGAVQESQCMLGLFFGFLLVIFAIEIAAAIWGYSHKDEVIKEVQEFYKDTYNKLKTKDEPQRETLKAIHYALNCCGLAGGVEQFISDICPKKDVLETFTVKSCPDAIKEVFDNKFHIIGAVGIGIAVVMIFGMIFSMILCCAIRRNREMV

binding result [1]: binds | binding result [2]: binds
B1: anti-CD9 Fab-Y antibody 7272 (Fab, V domains shown)
VH: QSLEESGGRLVTPGTPLTLTCTVSGFSLSSYAMGWVRQAPGKGLEWIGAIGSITATGYARWAKGRFSISKTSTTVDLKMTSPTTEDTATYFCAREIYVGSAYAFDIWGPGTLVTVSS
VL: AYDMTQTPASVEVAVGDTVTIKCQASQSISNYLAWYQQKPGQPPKLLIYLASTLASGVPSRFKGSGSGTEFTLTISDLECADAATYYCQQGYIDNVNKGFGGGTEVVVK
notes: Tested as Fab-Y: Fab fragment joined through a peptide linker at CH1 to the GCN4 peptide (clone 7P14P); also called VR7272

From patent US20230151109A1 (UCB, published 2023)
